Experiments:
Assay in all cases: MST
[1] = biological target: T1, full-length ETR1, purified and fluorescently labelled (Arabidopsis, UniProt P49333 1-738, fluorescent label (dye and site not stated))
T1 chain: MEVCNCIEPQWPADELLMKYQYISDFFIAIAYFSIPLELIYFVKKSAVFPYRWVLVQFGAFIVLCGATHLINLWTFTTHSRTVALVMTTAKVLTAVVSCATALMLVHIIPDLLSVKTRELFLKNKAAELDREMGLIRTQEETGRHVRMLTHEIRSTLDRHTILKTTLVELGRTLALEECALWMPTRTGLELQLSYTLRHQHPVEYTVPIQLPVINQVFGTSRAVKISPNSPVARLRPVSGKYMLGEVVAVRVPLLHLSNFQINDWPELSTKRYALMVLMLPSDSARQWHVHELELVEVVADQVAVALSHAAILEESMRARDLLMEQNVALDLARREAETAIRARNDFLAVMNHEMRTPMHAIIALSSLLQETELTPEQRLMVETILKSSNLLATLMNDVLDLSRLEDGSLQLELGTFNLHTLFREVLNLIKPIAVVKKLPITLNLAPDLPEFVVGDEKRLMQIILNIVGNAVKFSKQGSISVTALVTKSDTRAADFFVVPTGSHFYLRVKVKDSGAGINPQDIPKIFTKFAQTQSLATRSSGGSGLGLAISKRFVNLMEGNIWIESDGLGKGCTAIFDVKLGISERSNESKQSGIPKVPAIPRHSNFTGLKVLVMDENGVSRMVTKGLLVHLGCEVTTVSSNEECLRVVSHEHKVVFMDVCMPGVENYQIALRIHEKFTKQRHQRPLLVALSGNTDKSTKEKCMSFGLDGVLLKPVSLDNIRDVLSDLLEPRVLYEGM

ETR1 1-598 = biological target: ETR1 1-598
ETR1 1-157 = biological target: ETR1 1-157
ETR1 1-407 = biological target: ETR1 1-407
ETR1 1-307 = biological target: ETR1 1-307

B1: synthetic full length PLS peptide PLS(FL) (peptide)
peptide: MKPRLCFNFRRRSISPCYISISYLLVAKLFKLFKIH
With B1 the Kd [1] was 1900 nM, the Kd (ETR1 1-598) was 2920 nM and the Kd (ETR1 1-157) was 1520 nM. It also gave a Kd (ETR1 1-407) of 1650 nM and a Kd (ETR1 1-307) of 1780 nM.

— publication doi:10.1101/2023.06.15.545071 (2023)
